Laboratory results published in paper PMC6949303 (Nature Communications, 2020).
One block for each binder: values may come before it.

B5: wild-type IgE-Fc3-4 (co-expressed with the ligelizumab scFv for crystallisation) (domain or fragment, human)
chain: CADSNPRGVSAYLSRPSPFDLFIRKSPTITCLVVDLAPSKGTVNLTWSRASGKPVNHSTRKEEKQRNGTLTVTSTLPVGTRDWIEGETYQCRVTHPHLPRALMRSTTKTSGPRAAPEVYAFATPEWPGSRDKRTLACLIQNFMPEDISVQWLHNEVQLPDARHSTTQPRKTKGSGFFVFSRLEVTRAEWEQKDEFICRAVHEAASPSQTVQRAVSVNP
notes: human IgE heavy chain constant region, Cε3 and Cε4 domains, wild type (C328); also called C328 IgE-Fc3-4 fragment; wt C328 IgE-Fc3-4; source: HEK 293-6E, co-transfected with ligelizumab scFv, complex purified from supernatant (Ni-NTA, Superdex 200)

Assays:
Ligelizumab IgG = target: T1, Ligelizumab IgG; test: SPR; 100 RU ligelizumab or omalizumab IgG immobilised by amine coupling on CM5 (ligelizumab pH 5.0, omalizumab pH 4.5); 0.3-5 nM C328 or C335 IgE-Fc3-4 injected 120 s, dissociation 180 s; HBS-EP+, 10 ul/min, Biacore X100; 1:1 langmuir fit; details: both partners purified
T1 construct: constant region of the IgG heavy chain; constant region of the light chain; also called QGE031; source: produced and provided by Novartis Pharma AG

Omalizumab IgG = target: T2, Omalizumab IgG; test: as above; details: both partners purified
T2 construct: also called Xolair; source: produced and provided by Novartis Pharma AG

wild-type C328 IgE-Fc3-4 [1] = target: T3, wild-type C328 IgE-Fc3-4 (Homo sapiens, UniProt P01854); test: as above; details: both partners purified
T3 construct: human IgE heavy chain constant region, Fc fragment of the Cε3 and Cε4 domains, wild-type variant named C328; PDB 6UQR holds wt C328 IgE-Fc3-4 made in HEK 293-6E for the crystal; also called wt C328 IgE-Fc3-4

wild-type C328 IgE-Fc3-4 [2] = target: T4, wild-type C328 IgE-Fc3-4 (human, UniProt P01854); test: SPR; Biacore X100, CM5 chip, HBS-EP+; 100 RU ligelizumab or omalizumab IgG immobilised; 0.3–5 nM C328 or C335 IgE-Fc3-4 injected 120 s, dissociation 180 s; details: both partners purified
T4 construct: human IgE heavy chain constant region, Cε3 and Cε4 domains, variant named C328; also called wt C328 IgE-Fc3-4

[3] = target: the molecule itself; test: crystal structure; scFv:IgE-Fc3-4 complex, hanging drop, 0.2 M Na thiocyanate pH 6.9, 20% PEG3350, 10 mM spermidine, 14 °C; 3.65 Å
[4] = target: B5; test: as above; details: both partners purified
wild-type C328 IgE-Fc3-4 [5] = target: T5, wild-type C328 IgE-Fc3-4 (human, UniProt P01854 209-426); test: SPR; 1000 RU FcεRIα immobilised, 20 nM IgE-Fc3-4 captured; 3.13–100 nM ligelizumab or omalizumab injected 120 s, dissociation 180 s; details: both partners purified
T5 construct: human IgE heavy chain constant region, Cε3 and Cε4 domains, variant named C328; also called wt C328 IgE-Fc3-4

Kd (Ligelizumab IgG): 0.64 nM
koff (Ligelizumab IgG): 0.0065 s⁻¹
kon (Ligelizumab IgG): 1.1e+07 M⁻¹ s⁻¹
B1: mutated C335 IgE-Fc3-4 (domain or fragment)
chain: AADSNPRCVSAYLSRPSPFDLFIRKSPTITCLVVDLAPSKGTVNLTWSRASGKPVNHSTRKEEKQRNGTLTVTSTLPVGTRDWIEGETYQCRVTHPHLPRALMRSTTKTSGPRAAPEVYAFATPEWPGSRDKRTLACLIQNFMPEDISVQWLHNEVQLPDARHSTTQPRKTKGSGFFVFSRLEVTRAEWEQKDEFICRAVHEAASPSQTVQRAVSVNPGK
modifications: Disulfide-linked homodimer via Cys335 (entity position 11), closed Cε3 conformation; N-glycosylated at Asn394. The change is not given; it is taken from 5HYS entity 3 (C328A/G335C). …

Kd (Omalizumab IgG): 0.608 nM
koff (Omalizumab IgG): 0.0049 s⁻¹
kon (Omalizumab IgG): 7.7e+06 M⁻¹ s⁻¹
B2: mutated C335 IgE-Fc3-4 (domain or fragment)
chain: AADSNPRCVSAYLSRPSPFDLFIRKSPTITCLVVDLAPSKGTVNLTWSRASGKPVNHSTRKEEKQRNGTLTVTSTLPVGTRDWIEGETYQCRVTHPHLPRALMRSTTKTSGPRAAPEVYAFATPEWPGSRDKRTLACLIQNFMPEDISVQWLHNEVQLPDARHSTTQPRKTKGSGFFVFSRLEVTRAEWEQKDEFICRAVHEAASPSQTVQRAVSVNPGK

Kd (wild-type C328 IgE-Fc3-4 [1]): 0.011 nM
koff (wild-type C328 IgE-Fc3-4 [1]): 0.00014 s⁻¹
kon (wild-type C328 IgE-Fc3-4 [1]): 1.3e+07 M⁻¹ s⁻¹
B3: Ligelizumab IgG (antibody, V domains shown)
VH: QVQLVQSGAEVMKPGSSVKVSCKASGYTFSWYWLEWVRQAPGHGLEWMGEIDPGTFTTNYNEKFKARVTFTADTSTSTAYMELSSLRSEDTAVYYCARFSHFSGSNYDYFDYWGQGTLVTVSS
VL: EIVMTQSPATLSVSPGERATLSCRASQSIGTNIHWYQQKPGQAPRLLIYYASESISGIPARFSGSGSGTEFTLTISSLQSEDFAVYYCQQSWSWPTTFGGGTKVEIK
notes: constant region of the IgG heavy chain; constant region of the light chain; also called QGE031; source: produced and provided by Novartis Pharma AG

fold higher affinity than C335 IgE-Fc3-4 (wild-type C328 IgE-Fc3-4 [2]): ~60 fold
B4: Ligelizumab IgG (antibody, V domains shown)
VH: QVQLVQSGAEVMKPGSSVKVSCKASGYTFSWYWLEWVRQAPGHGLEWMGEIDPGTFTTNYNEKFKARVTFTADTSTSTAYMELSSLRSEDTAVYYCARFSHFSGSNYDYFDYWGQGTLVTVSS
VL: EIVMTQSPATLSVSPGERATLSCRASQSIGTNIHWYQQKPGQAPRLLIYYASESISGIPARFSGSGSGTEFTLTISSLQSEDFAVYYCQQSWSWPTTFGGGTKVEIK
notes: heavy chain constant region of the IgG; light chain constant region; also called QGE031; source: produced and provided by Novartis Pharma AG

Binder: B5
stoichiometry N [3]: 2

binding result [4]: binds
B6: ligelizumab single chain fragment variable (scFv) (scFv)
scFv: QVQLVQSGAEVMKPGSSVKVSCKASGYTFSWYWLEWVRQAPGHGLEWMGEIDPGTFTTNYNEKFKARVTFTADTSTSTAYMELSSLRSEDTAVYYCARFSHFSGSNYDYFDYWGQGTLVTVSSGTGGSGGGGSGGGGSGGGASEIVMTQSPATLSVSPGERATLSCRASQSIGTNIHWYQQKPGQAPRLLIYYASESISGIPARFSGSGSGTEFTLTISSLQSEDFAVYYCQQSWSWPTTFGGGTKVEIKENLYFQ
notes: ligelizumab VH domain; GTG(GSGGG)3AS linker; ligelizumab VL domain; also called ligelizumab scFv; ligelizumab single chain Fv; source: HEK 293-6E, co-transfected with IgE-Fc3-4, complex purified from supernatant (Ni-NTA, Superdex 200); not shown: His8, C-terminal, cleaved

binding result (wild-type C328 IgE-Fc3-4 [5]): binds
B7: Recombinant extracellular part of human FcεRIα (receptor, UniProt P12319 26-205, looked up)
chain: VPQKPKVSLNPPWNRIFKGENVTLTCNGNNFFEVSSTKWFHNGSLSEETNSSLNIVNAKFEDSGEYKCQHQQVNESEPVYLEVFSDWLLLQASAEVVMEGQPLFLRCHGWRNWDVYKVIYYKDGEALKYWYENHNISITNATVEDSGTYYCTGKVWQLDYESEPLNITVIKAPREKYWLQ
notes: also called recombinant human FcεRIα
